{
  "source": "paper PMC10247153",
  "about": "“Chromatin Sensing by the Auxiliary Domains of KDM5C Regulates Its Demethylase Activity and Is Disrupted by X-linked Intellectual Disability Mutations”",
  "target": "T1, KDM5C ARID (Homo sapiens, UniProt P41229 73-188)",
  "T1 sequence": "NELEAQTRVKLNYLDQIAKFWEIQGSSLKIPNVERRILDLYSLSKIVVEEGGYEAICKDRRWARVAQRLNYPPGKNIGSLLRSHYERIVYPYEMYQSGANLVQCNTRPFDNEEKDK",
  "assay": "EMSA; apparent Kd; EMSA: 50 mM HEPES pH 7.5, 50 mM KCl, 1 mM BME, 0.01% Tween-20, 0.01% BSA, 5% sucrose, 1 h on ice; 100 nM nucleosome or 147 bp DNA, 500 nM 20 bp DNA; gel at 4 C.",
  "details": "protein: recombinant; tags: 6xHis-SUMO cleaved",
  "data": [
    {"binder": "5' flanking (linker) DNA 20 bp (dsDNA) DNA 1: GGACCCTATACGCGGCCGCC DNA 2: GGCGGCCGCGTATAGGGTCC", "values": [
      {"measurement": "Kd", "result": "9.9 ± 0.4", "unit": "µM"}
    ]}
  ]
}
